The source of these data is US12534748B2, “Engineered beta-subunit of tryptophan synthase for production of non-canonical amino acids” (California Institute of Technology, priority 2015, dated 2026).

Substrate in series [1]: c1ccc2[nH]ccc2c1
Nature of the series: Tryptophan formation from L-serine and indole, kinetics of TmTrpB^T292S. The class given is biochemical, Thermotoga maritima. The following applies: other: 75° C., pH 8.0. How it is done: (§1) Kinetics and UV-Vis Spectroscopy. Data were collected between 550 and 250 nm on a UV1800 Shimadzu spectrophotometer (Shimadzu) using 0.25-20 μM of enzyme in 200 mM potassium phosphate (pH 8.0) in a quartz cuvette. Samples were incubated at 75° C. for >3 min to ensure a stable temperature was reached. PfTrpB activity (kcat) was measured by monitoring tryptophan formation at 290 nm using Δe290=1.89 mM^−1·cm^−1.
(§2) Cloning, expression, and purification of the different orthologs. The genes encoding AfTrpB (UNIPROT ID O28672), TmTrpB (UNIPROT ID P50909) and EcTrpB (UNIPROT ID P0A879) were obtained from IDT and cloned into pET22(b)+ using Gibson Assembly. Protein expression was carried out in E. coli BL21 E. cloni Express cells (Lucigen) by inoculating 10-mL Terrific Broth (with 100 μg/mL ampicillin (TBamp)) with a single colony and incubated over night at 37° C. and 250 rpm. These overnight cultures were used to scale up to 500-mL TBamp expression cultures, which were grown by shaking at 250 rpm and 37° C. for ˜3 h or until an OD600 of 0.8 was reached. […]
(§3) The next homolog, TmTrpB, was examined. […] The variants without the T292S mutation lacked this probative absorbance peak, but the decrease at 428 nm and concomitant increase at 350 nm are consistent with a similar, though less pronounced activation.

Substrate in series [2]: c1ccc2[nH]ccc2c1
Kind of series: Tryptophan formation from L-serine and indole, kinetics of TmTrpB^triple. The format is biochemical, Thermotoga maritima. The following applies: other: 75° C., pH 8.0. The protocol:
as §1, §2, §3

Substrate in series [3]: c1ccc2[nH]ccc2c1
Kind of series: Tryptophan formation from L-serine and indole, kinetics of TmTrpS complex. The format is biochemical, Thermotoga maritima. The following applies: other: 75° C., pH 8.0. The protocol:
as §1
as §2, with “reached. Then, after chilling the cultures on ice for 20 min, induction was conducted by the addition of IPTG to a final concentration of 1 mM.” for “reached.”
TmTrpA gene was also obtained from IDT and cloned into pET22(b)+ using Gibson Assembly, but without including the C-terminal His-tag. […] Protein concentrations were determined via the Bradford assay (Bio-Rad).

Substrate in series [4]: c1ccc2[nH]ccc2c1
Nature of the series: Tryptophan formation from L-serine and indole, kinetics of wild-type TmTrpB. The class given is biochemical, Thermotoga maritima. The following applies: other: 75° C., pH 8.0.

Substrate in series [5]: c1ccc2[nH]ccc2c1
Nature of the series: Tryptophan formation from L-serine and indole, kinetics of wild-type AfTrpB. The class given is biochemical, Archaeoglobus fulgidus. As to conditions: other: 60° C., pH 8.0. The protocol:
(§4) Kinetics and UV-Vis Spectroscopy. Data were collected between 550 and 250 nm on a UV1800 Shimadzu spectrophotometer (Shimadzu) using 0.25-20 μM of enzyme in 200 mM potassium phosphate (pH 8.0) in a quartz cuvette. […] PfTrpB activity (kcat) was measured by monitoring tryptophan formation at 290 nm using Δe290=1.89 mM^−1·cm^−1.
as §2
The three TrpB homologs and their corresponding 0B2 variants were expressed and purified, and then their kinetic properties (kcat and KM of indole) were measured. […] The UV-vis spectra of the enzymes was recorded before and after adding L-serine, relying on the diagnostic spectrum of the PLP cofactor to report the steady state population of the catalytic intermediates.

Substrate in series [6]: c1ccc2[nH]ccc2c1
Kind of series: Tryptophan formation from L-serine and indole, kinetics of AfTrpB double mutant. The following applies: other: 60° C., pH 8.0. The class given is biochemical, Archaeoglobus fulgidus. The protocol: as §4
as §2, with “reached. Then, after chilling the cultures on ice for 20 min, induction was conducted by the addition of IPTG to a final concentration of 1 mM. Induced cultures were allowed to grow at 250 rpm and 20° C. for another 20 h. After centrifugation, pelleted cells were frozen and stored at −20° C. until further use.” for “reached.”

Substrate in series [7]: c1ccc2[nH]ccc2c1
Nature of the series: Tryptophan formation from L-serine and indole, kinetics of EcTrpB double mutant. The format is biochemical, Escherichia coli. The following applies: other: 37° C., pH 8.0. The protocol: as §4
as §2, with “reached. Then, after chilling the cultures on ice for 20 min, induction was conducted by the addition of IPTG to a final concentration of 1 mM. Induced cultures were allowed to grow at 250 rpm and 20° C. for another 20 h. After centrifugation, pelleted cells were frozen and stored at −20° C. until further use.” for “reached.”

B1: Thermotoga maritima TrpB variant TmTrpB^T292S, SEQ ID NO: 26 (Thermotoga maritima MSB8; T292S) (protein)
chain: MKGYFGPYGGQYVPEILMPALEELEAAYEEIMKDESFWKEFNDLLRDYAGRPTPLYFARRLSEKYGARIYLKREDLLHTGAHKINNAIGQVLLAKKMGKTRIIAETGAGQHGVATATAAALFGMECVIYMGEEDTIRQKPNVERMKLLGAKVVPVKSGSRTLKDAINEALRDWITNLQTTYYVIGSVVGPHPYPIIVRNFQKVIGEETKKQILEKEGRLPDYIVACVGGGSNAAGIFYPFIDSGVKLIGVEAGGEGLETGKHAASLLKGKIGYLHGSKTFVLQDDWGQVQVSHSVSAGLDYSGVGPEHAYWRETGKVLYDAVTDEEALDAFIELSRLEGIIPALESSHALAYLKKINIKGKVVVVNLSGRGDKDLESVLNHPYVRERIRLEHHHHHH
For orientation: Km means the concentration of substrate that gives half-maximal velocity. In the case of B1, the Km in series [1] came to 25 µM.

B2: Thermotoga maritima TrpB variant TmTrpB^triple (P19G, I69V, T292S), SEQ ID NO: 34 (Thermotoga maritima MSB8; I69V/P19G/T292S) (protein)
chain: MKGYFGPYGGQYVPEILMGALEELEAAYEEIMKDESFWKEFNDLLRDYAGRPTPLYFARRLSEKYGARVYLKREDLLHTGAHKINNAIGQVLLAKKMGKTRIIAETGAGQHGVATATAAALFGMECVIYMGEEDTIRQKPNVERMKLLGAKVVPVKSGSRTLKDAINEALRDWITNLQTTYYVIGSVVGPHPYPIIVRNFQKVIGEETKKQILEKEGRLPDYIVACVGGGSNAAGIFYPFIDSGVKLIGVEAGGEGLETGKHAASLLKGKIGYLHGSKTFVLQDDWGQVQVSHSVSAGLDYSGVGPEHAYWRETGKVLYDAVTDEEALDAFIELSRLEGIIPALESSHALAYLKKINIKGKVVVVNLSGRGDKDLESVLNHPYVRERIRLEHHHHHH
Consider B2, for which the Km in series [2] was 26 µM.

B3: Thermotoga maritima tryptophan synthase complex TmTrpS (TmTrpA + TmTrpB) (Thermotoga maritima MSB8) (protein)
chain: MKGYFGPYGGQYVPEILMPALEELEAAYEEIMKDESFWKEFNDLLRDYAGRPTPLYFARRLSEKYGARIYLKREDLLHTGAHKINNAIGQVLLAKKMGKTRIIAETGAGQHGVATATAAALFGMECVIYMGEEDTIRQKPNVERMKLLGAKVVPVKSGSRTLKDAINEALRDWITNLQTTYYVIGSVVGPHPYPIIVRNFQKVIGEETKKQILEKEGRLPDYIVACVGGGSNAAGIFYPFIDSGVKLIGVEAGGEGLETGKHAASLLKGKIGYLHGSKTFVLQDDWGQVQVTHSVSAGLDYSGVGPEHAYWRETGKVLYDAVTDEEALDAFIELSRLEGIIPALESSHALAYLKKINIKGKVVVVNLSGRGDKDLESVLNHPYVRERIRLEHHHHHH
Turning to B3, the Michaelis constant (Km) in series [3] was determined as 44 µM.

B4: Thermotoga maritima tryptophan synthase beta-subunit TmTrpB, wild type, SEQ ID NO: 6 (Thermotoga maritima MSB8) (protein)
chain: MKGYFGPYGGQYVPEILMPALEELEAAYEEIMKDESFWKEFNDLLRDYAGRPTPLYFARRLSEKYGARIYLKREDLLHTGAHKINNAIGQVLLAKKMGKTRIIAETGAGQHGVATATAAALFGMECVIYMGEEDTIRQKPNVERMKLLGAKVVPVKSGSRTLKDAINEALRDWITNLQTTYYVIGSVVGPHPYPIIVRNFQKVIGEETKKQILEKEGRLPDYIVACVGGGSNAAGIFYPFIDSGVKLIGVEAGGEGLETGKHAASLLKGKIGYLHGSKTFVLQDDWGQVQVTHSVSAGLDYSGVGPEHAYWRETGKVLYDAVTDEEALDAFIELSRLEGIIPALESSHALAYLKKINIKGKVVVVNLSGRGDKDLESVLNHPYVRERIRLEHHHHHH
Regarding B4, the Km in series [4] came to 33 µM.

B5: Archaeoglobus fulgidus tryptophan synthase beta-subunit AfTrpB, wild type, SEQ ID NO: 4 (Archaeoglobus fulgidus DSM 4304) (protein)
chain: MRCWLENLSGGRKMKFGEFGGRFVPEVLIPPLEELEKAYDRFKDDEEFKARLEYYLKSYAGRPTPLYFAENLSRELGVKIYLKREDLLHGGAHKINNTIGQALLAKFMGKKRVIAETGAGQHGVATAMAAALLGLEAEIYMGAEDYERQKMNVFRMELLGAKVTAVESGSRTLKDAINEALRDWVESFEHTHYLIGSVVGPHPFPTIVRDFQAVIGKEARRQIIEAEGGMPDAIIACVGGGSNAMGIFHPFLNDDVRLIGVEAGGEGIESGRHSASLTAGSKGVLHGMLSYFLQDEEGMMLDTHSVSAGLDYPGVGPEHAYLKETGRCEYVTVNDEEALRAFKTLSKLEGIIPALESAHAIAYAMKMAEEMQRDDVLVVNLSGRGDKDMDIVRRRLALEHHHHHH
For B5, the Km in series [5] was found to be 12 µM.

B6: Archaeoglobus fulgidus TrpB variant M156T N178D (Table 6 prints N178T), SEQ ID NO: 24 (Archaeoglobus fulgidus DSM 4304; M156T/N178D) (protein)
chain: MRCWLENLSGGRKMKFGEFGGRFVPEVLIPPLEELEKAYDRFKDDEEFKARLEYYLKSYAGRPTPLYFAENLSRELGVKIYLKREDLLHGGAHKINNTIGQALLAKFMGKKRVIAETGAGQHGVATAMAAALLGLEAEIYMGAEDYERQKMNVFRTELLGAKVTAVESGSRTLKDAIDEALRDWVESFEHTHYLIGSVVGPHPFPTIVRDFQAVIGKEARRQIIEAEGGMPDAIIACVGGGSNAMGIFHPFLNDDVRLIGVEAGGEGIESGRHSASLTAGSKGVLHGMLSYFLQDEEGMMLDTHSVSAGLDYPGVGPEHAYLKETGRCEYVTVNDEEALRAFKTLSKLEGIIPALESAHAIAYAMKMAEEMQRDDVLVVNLSGRGDKDMDIVRRRLALEHHHHHH
Take B6: in series [6], the Km was 11 µM.

B7: Escherichia coli TrpB variant M149T N171D (Table 6 prints N171T), parent SEQ ID NO: 8, variant SEQ ID NO: 40 (Escherichia coli K-12; M149T/N171D) (protein)
chain: MTTLLNPYFGEFGGMYVPQILMPALRQLEEAFVSAQKDPEFQAQFNDLLKNYAGRPTALTKCQNITAGTNTTLYLKREDLLHGGAHKTNQVLGQALLAKRMGKTEIIAETGAGQHGVASALASALLGLKCRIYMGAKDVERQSPNVFRTRLMGAEVIPVHSGSATLKDACDEALRDWSGSYETAHYMLGTAAGPHPYPTIVREFQRMIGEETKAQILEREGRLPDAVIACVGGGSNAIGMFADFINETNVGLIGVEPGGHGIETGEHGAPLKHGRVGIYFGMKAPMMQTEDGQIEESYSISAGLDFPSVGPQHAYLNSTGRADYVSITDDEALEAFKTLCLHEGIIPALESSHALAHALKMMRENPDKEQLLVVNLSGRGDKDIFTVHDILKARGEILEHHHHHH
On to B7, for which the Km in series [7] is 18 µM.
